Experimental data: patent publication US20050272636A1, “Treatment and diagnosis of a reproductive disorder by measuring or inhibiting interferon-gamma” (Adelaide Research & Innovation Pty Ltd., priority 2002, published 2005)

Experiments:
IFNγ [1] = test: Inhibitors and antagonists counteracting the GM-CSF-inhibiting actions of IFNγ in uterine epithelial cells (Example 3); assay type: cell-based, mouse; conditions: for effect of TGFβ isoform on the inhibitory effect of IFNγ on GM-CSF synthesis: added in combination with IFNγ, dose-responsive, 5 ng/ml greater effect than 0.5 ng/ml
Protocol: Several inhibitors and antagonists of IFNγ were tested for their ability to counteract the GM-CSF-inhibiting actions of IFNγ in epithelial cells.
Uterine Epithelial Cell Cultures. Uterine epithelial cells prepared by pancreatin-trypsin digest as previously described (Robertson et al., (1992) Biol. Reprod. 46:1069-1079) were pooled from 4-6 estrous adult C57B1/6×CBA F1 female mice and plated in 1 ml culture wells (Nunc, Roskilde, Germany) at 1-2×10^5 cells per ml in 500 μl of RPMI containing 10% FCS and streptomycin (RPMI-FCS). Penicillin was omitted from culture media except where specified. After 4 h incubation at 37° C. in 5% CO2 to allow cell adherence, a further 500 μl of cytokines or antibodies in RPMI-FCS, or RPMI-FCS alone, were added. Cytokine treatments included recombinant mouse interferon-γ (rmIFNγ; R&D Systems), recombinant human transforming growth factor β1 (rhTGFβ1, R&D Systems), rhTGFβ2 (R&D Systems), rhTGFβ3 (OSI Pharmaceuticals). Antibody treatments included goat anti-mouse IFNγ receptor 1 (αIFNγR; R&D Systems AF1026) and hamster anti-mouse IFNγ (αIFNγ; R&D Systems MAB4851). Culture supernatants were collected and replaced with fresh complete RPMI-FCS alone at 16 hours, then collected again 24 hours later, at which time adherent cells were quantified as previously described (Robertson et al., (1992) Biol. Reprod. 46:1069-1079). The GM-CSF content of 24 h supernatants was determined by GM-CSF bioassay or immunoassay. All treatments were performed in duplicate or triplicate.
GM-CSF bioassay and immunoassay: Bioactive GM-CSF was assayed using the GM-CSF dependant cell line FD 5/12, essentially as previously described (Robertson et al., (1992) Biol. Reprod. 46:1069-1079). Cell proliferation was determined by the addition of 1 μCi of [^3H]-thymidine per well for the last 6 h of the assay. The minimal detectable amount of GM-CSF was […] The identity of the bioactivity in uterine epithelial cell cultures was confirmed using a goat polyclonal antibody to murine GM-CSF kindly provided by J. Schreurs (DNAX, Palo Alto, Calif.) as previously described (Robertson et al., (1992) Biol. Reprod. 46:1069-1079). GM-CSF immunoactivity was in some experiments measured by commercial mouse GM-CSF specific ELISA (R & D Systems) according to the manufacturer's instructions.

IFNγ [2] = molecular target: T1, IFNγ (Mus musculus, UniProt P01580); test: Penicillin inhibition of the IFNγ effect on GM-CSF production in uterine epithelial cells (Example 2); assay type: cell-based; conditions: DMEM +penicillin versus DMEM -penicillin
T1 construct: purchased R&D Systems, UK
T1 sequence (P01580 23-155): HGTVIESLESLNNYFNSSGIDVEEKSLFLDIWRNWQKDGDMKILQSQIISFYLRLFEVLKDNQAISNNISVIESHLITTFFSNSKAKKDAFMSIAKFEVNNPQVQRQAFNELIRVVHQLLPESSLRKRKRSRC
Protocol: Uterine Epithelial Cell Cultures. Uterine epithelial cells prepared as previously described (Robertson et al., Biol Reprod 46:1069-1079 (1992)) were pooled from 4-6 estrous C57B1/6 or C57B1/6×Balb/c F1 mice and plated in 1 ml culture wells (Nunc, Roskilde, Germany) at 1-2×10^5 cells per ml in 500 μl of Dulbecco's modified Eagles medium containing 10% FCS, […] streptomycin sulphate and […] benzyl penicillin (DMEM +penicillin). After 4 h incubation at 37° C. in 5% CO2 to allow cell adherence, a further 500 μl of DMEM +penicillin, or DMEM +penicillin plus recombinant mouse IFNγ (rIFNγ) and/or recombinant human TGFβ1 (rTGFβ), were added. In some experiments, penicillin-free DMEM (DMEM −penicillin) was used throughout. Culture supernatants were collected and replaced with fresh medium at 16 hours, then collected again 24 hours later, at which time GM-CSF content was determined and adherent cells were quantified as previously described (Robertson et al., Biol Reprod 46:1069-1079 (1992)). […]
GM-CSF bioassay: GM-CSF was assayed using the GM-CSF dependant cell line FD 5/12, essentially as previously described (Robertson et al., Biol Reprod 46:1069-1079 (1992)). Cell proliferation was determined by pulsing with 1 μCi of [^3H]-thymidine per well for the last 6 h of the assay. […] GM-CSF production is expressed as ng GM-CSF/10^5 cells/24 h. […]

[3] = system: human cervical epithelial cells; test: Effect of IFN-γ and TGFβ on GM-CSF synthesis in human cervical epithelial cells (Example 4); assay type: cell-based; conditions: 5.0 ng/ml recombinant human IFN-γ; 12 h; ELISA
Protocol: Human cervical epithelial cells were cultured using a modification of the technique described by Rheinwald et al., Cell 1975 3: 33143 (1975). Cervical biopsies were obtained from consenting women undergoing hysterectomy for non-malignant gynaecological indications. All the women were pre-menopausal, but no distinction was made regarding the stage of their menstrual cycle at the time of surgery. The cervical biopsies were placed in ice-cold Hank's balanced salt solution for transport to the laboratory, washed twice in antibiotic-containing medium, and incubated overnight at 4° C. in Dulbecco's modified Eagle's medium (DMEM) containing 5 U dispase (Boehringer Mannheim). Large sheets of keratinocytes were mechanically stripped from the biopsy using sterile forceps after a subsequent 1 h incubation at room temperature. Disaggregation into single cells was facilitated by incubation in DMEM/0.25% trypsin/0.05% collagenase for 30 minutes at 37° C., and repeated aspiration using a needle and syringe. […]
Supernatant was collected 12 hours later and assayed for GM-CSF activity using a commercial human GM-CSF specific ELISA (R & D Systems) according to the manufacturer's instructions. The GM-CSF content of post-treatment supernatants were normalised to the GM-CSF content of corresponding 12 h (baseline) supernatants and expressed as a percentage of control values.

mice = test: Effect of IFN-γ treatment on pregnancy outcome in mice (Example 8); assay type: in vivo; conditions: for effect on the detrimental effects of IFN-γ on pregnancy outcome: implantation rate, viable versus resorbing fetuses, fetal and placental weight on day 18
Protocol: Mice are housed under specific pathogen-free conditions at the University of Adelaide Medical School Animal House on a 12:12 light-dark cycle, and administered food and water ad libitum. Adult Balb/c×C57B1/6 F1 females (7-10 weeks old) are synchronised into estrus by caging in close proximity to males. Estrus is identified on the basis of presence of cornified epithelial cells in vaginal smears prepared at 0900-1000 h daily and examined by phase contrast microscopy. On the day of estrus (day 0) females are caged with proven fertile Balb/k males for natural mating. The day of sighting a vaginal plug is nominated day 1 of pregnancy.
Mice are randomly allocated to one of four groups and treated as follows: Group 1 (100 ng IFN-γ) mice receive three intraperitoneal injections of […] recombinant mouse IFN-γ (rmIFN-γ, R&D Systems) in 200 μl PBS containing 1% bovine serum albumin (PBS-BSA) at 1700 h on day 0, at 1000 h on day 1 and 1700hon day 1.
Group 2 (250 ng IFN-γ) receive three injections of 250 ng rmIFN-γ according to the same time schedule.
Group 3 (control) receive three injections of PBS-BSA instead of IFN-γ according to the same time schedule.
Group 4 (comparison) Mice are mated but otherwise remain untreated.
Twenty mice per group are used to ensure statistical significance in treatment effects.
Alternatively, a transcervical delivery route for IFN-γ is used. Treatments are delivered directly into the uterine lumen with the aid of a tom-cat catheter (Sovereign, St Louis Mo.). In mated animals this requires removal of vaginal plugs using forceps to allow transcervical access. Mice are randomly allocated to one of four groups and treated as follows: the first group (100 ng IFN-γ) mice receive three transcervical injections of […] recombinant mouse IFN-γ (rmIFN-γ, R&D Systems) in 200 μl PBS containing 1% bovine serum albumin (PBS-BSA) at 1700 h on day 0, at 1000 h on day 1 and 1700 h on day 1. The second group (25 ng IFN-γ) receive three injections of 25 ng rmIFN-γ according to the same time schedule. The third group (control) receive three injections of PBS-BSA instead of IFN-γ according to the same time schedule. For comparison, a fourth group of mice are mated but otherwise would remain untreated. Twenty mice per group are used to ensure statistical significance in treatment effects.
Pregnant females are sacrificed by cervical dislocation at 1000 h -1200 h on day 18 of gestation. The intact uterus of each female is removed and total, viable and resorbing implantation sites counted. Each viable fetus is dissected from the amniotic sac and umbilical cord, and fetuses and placentae weighed. Placental tissues are fixed in paraformaldehyde and processed for histological staining of paraffin sections, using Masson's trichrome stain.

CC1(C)S[C@@H]2[C@H](NC(=O)Cc3ccccc3)C(=O)N2[C@H]1C(=O)O [penicillin, benzyl penicillin, reference compound]
IFNγ concentration required to inhibit GM-CSF synthesis after addition of penicillin (IFNγ [1]; penicillin at 60 μg/ml): ≥ 2.5 ng/mL
effect of penicillin on the GM-CSF inhibiting activity of IFNγ (IFNγ [1]; penicillin at 60 μg/ml): antagonised the GM-CSF inhibiting activity of IFNγ
ability of penicillin to inhibit the effect of IFNγ on GM-CSF production (IFNγ [2]): inhibit the effect of IFNγ

IFN-γ: recombinant human IFN-γ (R & D Systems), used on human cervical epithelial cells in Example 4
effect of IFN-γ on GM-CSF synthesis [3]: inhibited GM-CSF synthesis

B1: IFN-γ: recombinant human IFN-γ (R & D Systems), used on human cervical epithelial cells in Example 4 (protein, UniProt P01579 24-161, looked up)
Interferon gamma: QDPYVKEAENLKKYFNAGHSDVADNGTLFLGILKNWKEESDRKIMQSQIVSFYFKLFKNFKDDQSIQKSVETIKEDMNVKFFNSNKKKRDDFEKLTNYSVTDLNVQRKAIHELIQVMAELSPAAKTGKRKRSQMLFRG
effect of IFN-γ on pregnancy outcome (mice; peritoneal cavity or uterine lumen, day of estrus and day 1, assessed day 18): impairs pregnancy outcome

B2: rhTGFβ2: recombinant human TGFβ2 (R&D Systems) (protein, UniProt P61812 303-414, looked up)
Transforming growth factor …: ALDAAYCFRNVQDNCCLRPLYIDFKRDLGWKWIHEPKGYNANFCAGACPYLWSSDTQHSRVLSLYNTINPEASASPCCVSQDLEPLTILYYIGKTPKIEQLSNMIVKSCKCS
modifications: Transforming growth factor beta-2
effect of TGFβ isoform on the inhibitory effect of IFNγ on GM-CSF synthesis (IFNγ [1]): counteracted the inhibitory effect
effect on the detrimental effects of IFN-γ on pregnancy outcome (mice): reverses the detrimental effects of IFN-γ

B3: rhTGFβ3: recombinant human TGFβ3 (OSI Pharmaceuticals) (protein, UniProt P10600 301-412, looked up)
Transforming growth factor …: ALDTNYCFRNLEENCCVRPLYIDFRQDLGWKWVHEPKGYYANFCSGPCPYLRSADTTHSTVLGLYNTLNPEASASPCCVPQDLEPLTILYYVGRTPKVEQLSNMVVKSCKCS
modifications: Transforming growth factor beta-3
effect of TGFβ isoform on the inhibitory effect of IFNγ on GM-CSF synthesis (IFNγ [1]): counteracted the inhibitory effect
effect on the detrimental effects of IFN-γ on pregnancy outcome (mice): reverses the detrimental effects of IFN-γ
